Reference: IntAct's records for PubMed 17891150

B1: Trinucleotide repeat-containing gene 6B protein (Homo sapiens), Q9UPQ9-2 (parent)
chain: MQTNEGEVSEESSSKVEQEDFVMEGHGKTPPPGEESKQEKEQEREEQLMEDKKRKKEDKKKKEATQKVTEQKTKVPEVTKPSLSQPTAASPIGSSPSPPVNGGNNAKRVAVPNGQPPSAARYMPREVPPRFRCQQDHKVLLKRGQPPPPSCMLLGGGAGPPPCTAPGANPNNAQVTGALLQSESGTAPVWSKSTPPAPDNGTSAWGEPNESSPGWGEMDDTGASTTGWGNTPANAPNAMKPNSKSMQDGWGESDGPVTGARHPSWEEEEDGGVWNTTGSQGSASSHNSASWGQGGKKQMKCSLKGGNNDSWMNPLAKQFSNMGLLSQTEDNPSSKMDLSVGSLSDKKFDVDKRAMNLGDFNDIMRKDRSGFRPPNSKDMGTTDSGPYFEKGGSHGLFGNSTAQSRGLHTPVQPLNSSPSLRAQVPPQFISPQVSASMLKQFPNSGLSPGLFNVGPQLSPQQIAMLSQLPQIPQFQLACQLLLQQQQQQQLLQNQRKISQAVRQQQEQQLARMVSALQQQQQQQQRQPGMKHSPSHPVGPKPHLDNMVPNALNVGLPDLQTKGPIPGYGSGFSSGGMDYGMVGGKEAGTESRFKQWTSMMEGLPSVATQEANMHKNGAIVAPGKTRGGSPYNQFDIIPGDTLGGHTGPAGDSWLPAKSPPTNKIGSKSSNASWPPEFQPGVPWKGIQNIDPESDPYVTPGSVLGGTATSPIVDTDHQLLRDNTTGSNSSLNTSLPSPGAWPYSASDNSFTNVHSTSAKFPDYKSTWSPDPIGHNPTHLSNKMWKNHISSRNTTPLPRPPPGLTNPKPSSPWSSTAPRSVRGWGTQDSRLASASTWSDGGSVRPSYWLVLHNLTPQIDGSTLRTICMQHGPLLTFHLNLTQGTALIRYSTKQEAAKAQTALHMCVLGNTTILAEFATDDEVSRFLAQAQPPTPAATPSAPAAGWQSLETGQNQSDPVGPALNLFGGSTGLGQWSSSAGGSSGADLAGASLWGPPNYSSSLWGVPTVEDPHRMGSPAPLLPGDLLGGGSDSI

Variants of: B1
Settings: with ago2_human AGO2, Q9UKV8
Chain of ago2_human AGO2, Q9UKV8 (Q9UKV8 whole entry): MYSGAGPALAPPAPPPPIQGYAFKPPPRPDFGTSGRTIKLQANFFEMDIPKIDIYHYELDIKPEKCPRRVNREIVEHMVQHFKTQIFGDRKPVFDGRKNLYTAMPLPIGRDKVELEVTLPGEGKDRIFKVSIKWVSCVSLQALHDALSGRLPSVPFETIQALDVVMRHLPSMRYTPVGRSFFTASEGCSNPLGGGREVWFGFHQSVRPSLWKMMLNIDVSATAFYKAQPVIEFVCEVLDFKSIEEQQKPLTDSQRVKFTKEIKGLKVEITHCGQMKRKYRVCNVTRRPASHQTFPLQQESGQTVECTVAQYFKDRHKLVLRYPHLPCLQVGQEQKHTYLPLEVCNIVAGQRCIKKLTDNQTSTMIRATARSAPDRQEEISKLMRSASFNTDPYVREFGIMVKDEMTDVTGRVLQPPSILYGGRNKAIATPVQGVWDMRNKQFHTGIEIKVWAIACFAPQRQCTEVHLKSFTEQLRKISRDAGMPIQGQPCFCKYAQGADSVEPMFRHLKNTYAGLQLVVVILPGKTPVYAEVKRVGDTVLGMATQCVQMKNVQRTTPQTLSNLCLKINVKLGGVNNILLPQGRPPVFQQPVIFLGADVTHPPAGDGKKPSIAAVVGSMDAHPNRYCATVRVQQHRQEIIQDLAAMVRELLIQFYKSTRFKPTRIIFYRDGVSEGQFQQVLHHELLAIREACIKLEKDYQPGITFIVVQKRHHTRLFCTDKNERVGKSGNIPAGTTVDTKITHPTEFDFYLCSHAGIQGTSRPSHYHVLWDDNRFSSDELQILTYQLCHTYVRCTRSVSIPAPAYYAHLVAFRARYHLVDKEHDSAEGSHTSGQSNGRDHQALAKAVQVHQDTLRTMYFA

Row | effect of a mutation on the interaction | Variant
1 | disrupting interaction | W205A;W215A
2 | disrupting interaction | W215F
3 | disrupting interaction | W205F
